Measured values from the RNAGym collection of RNA variant scans (doi:10.1073/pnas.2313332121).

B1: TPR t1 (parent)
chain: GACCAAUCUGCCCUCAGAGCUCGAGAACAUCUUCGGAUGCAGAGGAGGCAGGCUUCGGUGGCGCGAUAGCGCCAACGUCCUCAACCUCCAAUGCAUCCCACCACAUGAUGAUGCCUGAAGAGCCUUGGUUUUUUG

Variants of: B1
Assay: polymerase ribozyme fitness, log enrichment relative to wild type (log ratio); higher = more active; in vitro selection for triplet polymerase activity
Summary of the method: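 The heterodimeric triplet polymerase ribozyme's subunits were each mutagenized into PCR-built libraries and transcribed. Every library was selected once, in triplicate, by annealing with a biotinylated primer, the partner subunit and triplets, incubating frozen at −7 °C, gel-excising extended constructs, capturing on streptavidin beads and running RT-PCR. Input and output libraries were Illumina-sequenced, with genotypes kept only at ≥10 input reads and ≥1 read per output. Fitness, from inverse-variance-weighted replicate averages, is the base-2 logarithm of genotype enrichment over wild-type enrichment.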

Row | Variant | polymerase ribozyme fitness (log ratio)
1 | C4U C13U G19U A95G | -2.99
2 | C4G G45A C114U | -4.45
3 | C4G C73U | -1.69
4 | A5G C15U G93U G117U | -1.5
5 | C4U C15U | -1.62
6 | A5G U87C | -0.474
7 | A5C G51A U78C G113U U133G | -6.24
8 | C4A G60A U78C | -2.08
9 | C4G C20G G61U G117A | -4.76
10 | C4U U14A | -2.88
11 | C4G U9G C13A C82U A111G | -2.04
12 | A5G G63C | -0.273
13 | A5G G63U | -0.893
14 | A5C C62U C85U C123A | -1.09
15 | A5G G71A | -0.188
16 | A5G C15U C70U C101U C124U | -0.0911
17 | C4U G69C | -2.05
18 | A5G U9C C40U C56U U59A | -0.739
19 | A5C C56A | -0.668
20 | C4U G44A C73U A75U C94A | -2.78
21 | C4U G60C A83U A84C C86A | -2.24

Row | Variant | polymerase ribozyme fitness (log ratio)
22 | C4U U7C A43U C62G | -4.93
23 | A5U A83U G120U U129C | -1.35
24 | A5G C64G G69A A83U | -4.33
25 | A5U C31U U112A | -3.97
26 | A5C A118G | -0.499
27 | A5C U14A A46U | -4.39
28 | A5G C13G A37G | -1.28
29 | A5U C114A | -1.69
30 | C4G C8G A26G G71A G120U | -1.19
31 | C4A G69U | -0.0821
32 | C4A G69C | -3.61
33 | C4G A18C | -3.16
34 | C4G C101A | -2.61
35 | A5C G69U C72U C79A U92A | -3.86
36 | C4U C11A | -1.89
37 | C4A G48C G61A U81C U96A | -3.76
38 | A5C U14C U54A C88U C124A | 1.25
39 | A5G G44C A74U U96G | -2.57
40 | C4A G45A C72A C123A | -0.972
41 | C4U A37U C40U A83G | -2.17
42 | C4G C72G | -1.74

Row | Variant | polymerase ribozyme fitness (log ratio)
43 | C4U C34A G71C A83G C98U U112A | -5.16
44 | A5U A50U A105U A119G | -1.86
45 | A5U A41C U55C U59C C82G G120C U125A | -2.81
46 | A5G A18U G42U G52C G69C | -3.05
47 | A5G G47U A50C C62U A105C | -6.17
48 | A5U A41U G120C | -1.47
49 | C4G U112C | -0.0354
50 | C4G U112A | -0.309
51 | A5G U9C U32C C40G G60U | -1.01
52 | C4U U38G U112A | -0.207
53 | A5G A83U | -1.18
54 | A5G U109G | -4.99
55 | A5U C15G C72G A119G A121U | 0.915
56 | A5C C73G C102A | -3.71
57 | C4A C72U U130A | -2.53
58 | A5U A37G C79G | -1.97
59 | A5U C11U U54A C89A | -2.83
60 | C4U A18U | -2.35
61 | A5C U9C C86U A100U G135U | -1.74
62 | C4U C20A G120U | -3.69
63 | A5G C88G | -1.27

Row | Variant | polymerase ribozyme fitness (log ratio)
64 | C4U C8A C28U U59A | -2.29
65 | C4A G45C G120A G127C | -1.29
66 | A5U A29U C94U | -2.08
67 | C4U A6U G45A C80U C101A | -3.66
68 | A5U C53U U92A G113U | -4.65
69 | A5U C70A | -2.56
70 | A5U C70G | -2.83
71 | C4U C56G C70A | -3
72 | A5U C12U U21G A27C A46G A90G G120U | -2.99
73 | A5G G57A G63A | -2.06
74 | A5U A29U | -1.95
75 | C4G A41U A46C U87G A91U C115A G135U | -4.36
76 | C4U C70U | -0.878
77 | C4U C70A | -2.42
78 | C4U C97G | -3.97
79 | A5U A121U | 1.1
80 | C4U A100U G117U | -4.99
81 | A5G C22A A119G | -4.13
82 | C4G U9A C56G U112A G117A G120C | -6.24
83 | C4U G42C G60U C88G C99G A111U U134A | -5.4
